The RNAGym collection of RNA variant scans (doi:10.7554/elife.80360)

B1: Hairpin Ribozyme (parent)
chain: GUCCUCUUUCACGUGCGCGUGAAAGAGAGAAGUGAACCAGAGAAACACACGUUGUGGUAUAUUACCUGGUA

Variants of: B1
Experiment: self-cleavage, relative activity (ratio to wild type); higher = more cleavage; co-transcriptional

Point of comparison: U52G A59C, self-cleavage 0.206. Against it:
- U55G G57C — lower, 0.126
- G57A U62C — lower, 0.117
- G57A U62A — higher, 0.212
- U52C U70G — higher, 0.988
- U52C U70C — higher, 1.11
- G57U A61U — lower, 0.203
- G54A A61U — higher, 0.254
- U53A C66U — higher, 0.649
- A59C C65G — higher, 0.246
- A59C C65A — lower, 0.0683
- A59C C65U — higher, 0.23
- G56U U62G — lower, 0.104
- U53C A59U — lower, 0.166
- U53C A59C — higher, 0.217
- U53A U60A — higher, 1.08
- G54C G57C — lower, 0.155
- G54C G57U — higher, 0.217
- U53G G57U — lower, 0.164
- U53G G57A — lower, 0.178
- U53G G69U — higher, 0.279
- G57C U58C — higher, 0.258
- G57C U58A — higher, 0.222
- U52G U62C — lower, 0.126
- U52G U62G — lower, 0.0994
- G56C A71U — lower, 0.119
- G54A A59U — lower, 0.148
- G54A A59G — lower, 0.17
- G54U A61U — higher, 0.268
- G54U A61G — lower, 0.139
- G54U U60C — higher, 0.834
- U53A A64U — lower, 0.143
- U53G A71U — higher, 0.635
- U53G A71C — higher, 1.29
- G57U U58A — higher, 0.309
- U55A G56C — lower, 0.203
- U55A G56U — lower, 0.148
- G54C G69A — lower, 0.0998
- G57U C66A — higher, 0.219
- G57U C66U — higher, 0.244
- G54U A59C — lower, 0.0613
- G57C A64C — lower, 0.178
- G54C A64U — lower, 0.155
- G56A U60G — lower, 0.186
- G56C U63C — lower, 0.17
- G56C U63G — lower, 0.175
- G56C U63A — lower, 0.0712
- G57U G68U — lower, 0.196
- A59G G68A — lower, 0.135
- A59G G68U — higher, 0.235
- G54C C65A — lower, 0.194
- U55A A59C — higher, 0.252
- U55A A59G — lower, 0.163
- A59G U67C — lower, 0.128
- U52G U67G — lower, 0.156
- U58C U67A — higher, 0.231
- U55C C66A — lower, 0.13
- U55C C66G — lower, 0.191
- U53G A61G — higher, 0.313
- U53G A61C — lower, 0.0932
- U58C A61C — lower, 0.145
- G54U U58A — higher, 0.302
- A59G U62C — lower, 0.201
- U53A U58A — higher, 0.746
- G54C C66U — higher, 0.254
- G56A A71G — higher, 0.245
- U55C A64G — lower, 0.132
- U55C A64C — lower, 0.102
- G57A U63C — lower, 0.151
- G57A U63G — lower, 0.182
- G56A U70A — higher, 0.223
- G56A U70C — higher, 0.247
- A59G A61G — lower, 0.082
- A59G A61U — lower, 0.141
- G57U U67G — lower, 0.152
- G56U U60C — lower, 0.135
- G56U U60A — higher, 0.219
- G56U U60G — higher, 0.231
- G54A U58A — higher, 0.453
- U52G G56U — lower, 0.131
- U53G A59C — lower, 0.166
- U53G A59G — lower, 0.114
- G54U A71C — higher, 1.1
- G57A A59U — lower, 0.0919
- U53A U63C — lower, 0.156
- U55G C66U — higher, 0.422
- U55C C65A — lower, 0.142
- G57U U63G — higher, 0.291
- G57U U63C — lower, 0.146
- U58A U67C — lower, 0.118
- U58A U67A — higher, 0.273
- G56A C66G — lower, 0.114
- G56A C66U — higher, 0.296
- G54A C65G — lower, 0.107
- G54A C65A — higher, 0.497
- U52G U63G — lower, 0.134
- U52G U63A — lower, 0.139
- U53A A71C — higher, 1.41
- U58A G68A — higher, 0.272
- U58A G68U — lower, 0.134
- G54U C66U — higher, 0.211
- G54U C66A — higher, 0.228
- G54A G68U — higher, 0.227
- U52C C65U — higher, 0.471
- U52C C65A — higher, 1.2
- U53C U62G — lower, 0.122
- U55G G69C — higher, 0.257
- G56C A61U — lower, 0.177
- A59G C66A — higher, 0.228
- G54C U55A — lower, 0.196
- G57U G69C — lower, 0.0914
- G57U G69U — higher, 0.215
- U58A A61G — higher, 0.27
- U58A A61C — lower, 0.0874
- U58A A61U — higher, 0.216
- G57C U67A — higher, 0.257
- G54U G68A — higher, 0.22
- G54U G68C — higher, 0.212
- U52C U62A — higher, 0.32
- U55A A71G — lower, 0.14
- U55A A71C — higher, 0.697
- U53A G57U — lower, 0.181
- U53A G57A — lower, 0.14
- G54C G56A — lower, 0.116
- G54C G56U — lower, 0.166
- U52G G68C — higher, 0.283
- U52G G68U — lower, 0.136
- U53G G56C — lower, 0.125
- U53G G56U — higher, 0.223
- U53G G56A — lower, 0.195
- U52G C66U — higher, 0.474
- U55G U63G — lower, 0
- G54C U70G — lower, 0.155
- G54C U70A — higher, 0.216
- G54C A71G — higher, 0.438
- U55A A64C — lower, 0.13
- U53C A64C — higher, 0.278
- U53C A64U — lower, 0
- U52C G57A — higher, 0.223
- U52C G57C — lower, 0.123
- G57U U70A — higher, 0.266
- U53G A64U — lower, 0.144
- U58G U60C — higher, 0.731
- G57C A61U — lower, 0.161
- G56C U62A — higher, 0.263
- U55A U58A — higher, 0.273
- A59C G68U — lower, 0.138
- A59C G68A — lower, 0.124
- U58G G68U — lower, 0.19
- U52C A71U — higher, 0.913
- U55C G57C — lower, 0.12
- U55G A71G — higher, 0.241
- U55G U58A — lower, 0.199
- G56A G68A — lower, 0.119
- U55A U62G — lower, 0.0995
- U53C G57U — higher, 0.234
- G54U U62C — lower, 0.172
- U55A G57A — lower, 0.148
- U55A G57C — lower, 0.146
- U55A G68U — lower, 0.17
- G57A U67A — lower, 0.2
- U52G U60C — higher, 1.08
- G57A A71U — lower, 0.187
- U52C U60A — higher, 1.14
- U58A U60C — higher, 0.715
- U52G A59G — higher, 0.25
- A59C C66G — higher, 0.253
